Measurements published in the supplement of paper PMC10724198.
± gives the standard deviation of the averaged measurements.
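Also: PSI is a weighted mean of sequencing reads over stability bins, variants kept only with over 10 reads, mCherry proximal and sfGFP distal, peptide attached via GGGS linker.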

Each sequence was assayed on Saccharomyces cerevisiae (assay: protein stability index of tFT-peptide fusion (C-terminal peptide) (PSI (0-1 scale)); higher = more stable (slower turnover)). Details: genetic background: wild type; temperature: 30 C.
PPTPPPPSGLPP gave a protein stability index of 0.678 ± 0.05.
With PPTPPPRPLQLP the protein stability index was 0.652 ± 0.0076.
PPTRPFHLFDHL was tested, and the protein stability index was 0.716 ± 0.029.
PPVLAVRTSLDA gave a protein stability index of 0.636 ± 0.021.
With PPVSPPPSRHPL the protein stability index was 0.719 ± 0.04.
Work on PPYPCRRPPPPP yielded a protein stability index of 0.647 ± 0.033.
Work on PPYPRRWAPLGP yielded a protein stability index of 0.6872 ± 0.0051.
PPYSLLFHPFPF gave a protein stability index of 0.699 ± 0.018.
PQPHLLRPPPHS gave a protein stability index of 0.674 ± 0.018.
Work on PQVSYYLLPPSS yielded a protein stability index of 0.711 ± 0.11.
Work on PQWVSIGSACCQ yielded a protein stability index of 0.754 ± 0.076.
With PQYGTNQGRWTG the protein stability index was 0.705 ± 0.055.
With PRALCPSSPPSR the protein stability index was 0.764 ± 0.12.
PRAPRLQAPGPG was tested, and the protein stability index was 0.75233 ± 0.00055.
PRCPVNTHPLAR was tested, and the protein stability index was 0.702 ± 0.013.
With PRGVLSCPVFAP the protein stability index was 0.776 ± 0.029.
With PRGYCGLGRPAR the protein stability index was 0.6305 ± 0.0013.
PRIFPDPVFPSL gave a protein stability index of 0.688 ± 0.046.
In the case of PRKISSFESSLT, the protein stability index is reported as 0.629 ± 0.086.
With PRLFPSSPLPFN the protein stability index was 0.822 ± 0.018.
In the case of PRLLSLKLSALS, the protein stability index is reported as 0.629 ± 0.063.
PRLPPLRPPPSP gave a protein stability index of 0.7079 ± 0.0064.
PRLPPPSPPPLP showed a protein stability index of 0.735 ± 0.01.
PRLPTSPVPHPP gave a protein stability index of 0.6473 ± 0.0033.
With PRLSGLFLAPPS the protein stability index was 0.707 ± 0.037.
Work on PRLSTYPDSPGS yielded a protein stability index of 0.71038 ± 0.00066.
PRLVALFEKNPD gave a protein stability index of 0.6615 ± 0.0012.
PRPCPASSPRPP gave a protein stability index of 0.627 ± 0.083.
Work on PRPLLFPLIFTP yielded a protein stability index of 0.627 ± 0.026.
PRPLTPDPPRPL was tested, and the protein stability index was 0.693 ± 0.062.
For PRPPARPPLRLL, the protein stability index was 0.719 ± 0.017.
For PRPPPPARSPPS, the protein stability index was 0.66 ± 0.06.
Work on PRPPPPCPPPSL yielded a protein stability index of 0.71 ± 0.083.
With PRPPPSQATLSP the protein stability index was 0.637 ± 0.052.
PRPPRAPPPLPS showed a protein stability index of 0.643 ± 0.1.
With PRPPSPAPPPHP the protein stability index was 0.69904 ± 0.00044.
In the case of PRPPSPRAPPPH, the protein stability index is reported as 0.631 ± 0.067.
In the case of PRPRRFPPPLLA, the protein stability index is reported as 0.5103 ± 0.0049.
Sequence PRPVRPSPHPPP has a protein stability index of 0.689 ± 0.1.
Sequence PRRPPPSPPVPP has a protein stability index of 0.532 ± 0.03.
With PRRQCIRAPCAR the protein stability index was 0.641 ± 0.018.
PRSLPSFHPPFH was tested, and the protein stability index was 0.658 ± 0.074.
With PRSPHPLPPTPP the protein stability index was 0.666 ± 0.0084.
In the case of PRSPPPPPSYSP, the protein stability index is reported as 0.703 ± 0.13.
With PRSSLPPPPSLP the protein stability index was 0.686 ± 0.038.
Sequence PRTLTPVCPAPH has a protein stability index of 0.702 ± 0.015.
In the case of PSALSEQQANGF, the protein stability index is reported as 0.6838 ± 0.0022.
Sequence PSAPPTPLAPSH has a protein stability index of 0.678 ± 0.028.
Work on PSASPPPPARQP yielded a protein stability index of 0.672 ± 0.057.
PSASRILSPPLP gave a protein stability index of 0.649 ± 0.016.
PSCCPPATLPPP gave a protein stability index of 0.687 ± 0.056.
In the case of PSCFFPFPPRPL, the protein stability index is reported as 0.727 ± 0.04.
PSDTSHPAWRAN gave a protein stability index of 0.708 ± 0.025.
Work on PSFPLLPPPSLS yielded a protein stability index of 0.6913 ± 0.0051.
In the case of PSFPPLPLSTPP, the protein stability index is reported as 0.762 ± 0.063.
Work on PSFPRSPHTAPH yielded a protein stability index of 0.746 ± 0.022.
In the case of PSFPSLLPPPPT, the protein stability index is reported as 0.703 ± 0.025.
PSGGRGSRWWGV showed a protein stability index of 0.7348 ± 0.006.
With PSGGSQSLGRLG the protein stability index was 0.634 ± 0.034.
PSGPSTVLPSPL was tested, and the protein stability index was 0.6866 ± 0.0065.
PSGSVLAEGRGP showed a protein stability index of 0.678 ± 0.077.
PSHPPPPSPTPP showed a protein stability index of 0.754 ± 0.024.
PSHTPLPPSSLS was tested, and the protein stability index was 0.763 ± 0.089.
For PSISSTSPLPRP, the protein stability index was 0.633 ± 0.039.
PSLLPPRVCRPS gave a protein stability index of 0.68 ± 0.089.
PSLPHLPSTSSC showed a protein stability index of 0.681 ± 0.023.
With PSLPLPPPPAHP the protein stability index was 0.65 ± 0.02.
In the case of PSLPPRPQLVHS, the protein stability index is reported as 0.596 ± 0.017.
Sequence PSLRLPVSVPTL has a protein stability index of 0.717 ± 0.018.
PSNNHRPPGCAD gave a protein stability index of 0.685 ± 0.023.
In the case of PSPAAPSPPCLP, the protein stability index is reported as 0.64 ± 0.045.
Sequence PSPAHLPPRSPL has a protein stability index of 0.714 ± 0.2.
PSPAPFPSSPSL showed a protein stability index of 0.687 ± 0.0073.
PSPAPLASPPRA gave a protein stability index of 0.693 ± 0.042.
With PSPAPPSPPSPP the protein stability index was 0.679 ± 0.028.
PSPASPTPPLVQ was tested, and the protein stability index was 0.682 ± 0.067.
Work on PSPATCGSSFSK yielded a protein stability index of 0.734 ± 0.056.
With PSPATCLCSPLP the protein stability index was 0.7057 ± 0.0019.
With PSPFFSRPSYLS the protein stability index was 0.718 ± 0.026.
In the case of PSPHHHYTPPST, the protein stability index is reported as 0.681 ± 0.0073.
PSPHLHPPPLPP gave a protein stability index of 0.641 ± 0.0047.
PSPLPLSPLPFS gave a protein stability index of 0.687 ± 0.04.
For PSPLRPSPAVPS, the protein stability index was 0.716 ± 0.064.
Sequence PSPLRRSTPPCL has a protein stability index of 0.709 ± 0.13.
Sequence PSPPAPPRGLLP has a protein stability index of 0.704 ± 0.03.
Work on PSPPDTDTPIPL yielded a protein stability index of 0.691 ± 0.034.
PSPPHPPPPSPY gave a protein stability index of 0.753 ± 0.097.
In the case of PSPPLPRPLSPP, the protein stability index is reported as 0.72 ± 0.045.
In the case of PSPPPLGPLPAL, the protein stability index is reported as 0.667 ± 0.037.
With PSPPPLPPLPPP the protein stability index was 0.764 ± 0.12.
In the case of PSPPPSSAPYPS, the protein stability index is reported as 0.609 ± 0.077.
PSPPRAPSTPLI gave a protein stability index of 0.744 ± 0.06.
For PSPPSAKLRRTP, the protein stability index was 0.72 ± 0.057.
For PSPPSPPPAPPP, the protein stability index was 0.643 ± 0.1.
For PSPQPTRPPGPL, the protein stability index was 0.704 ± 0.039.
PSPSLPSACARP was tested, and the protein stability index was 0.701 ± 0.012.
PSPTPLPSPRLP was tested, and the protein stability index was 0.676 ± 0.098.
Sequence PSPTRPPAYPRS has a protein stability index of 0.672 ± 0.11.
Work on PSPTTSRFAPPP yielded a protein stability index of 0.53 ± 0.047.
For PSRAPQGRADNT, the protein stability index was 0.69 ± 0.11.
In the case of PSRGPGRVAPCD, the protein stability index is reported as 0.641 ± 0.013.
With PSRKFYSRHFPP the protein stability index was 0.671 ± 0.028.
In the case of PSRSPPPLPAPH, the protein stability index is reported as 0.69 ± 0.011.
With PSRVRPLRLVLP the protein stability index was 0.614 ± 0.033.
Sequence PSSLATFLPWPI has a protein stability index of 0.739 ± 0.039.
Sequence PSSPLLGPPPPD has a protein stability index of 0.677 ± 0.01.
Sequence PSSSVICLLPPA has a protein stability index of 0.636 ± 0.04.
In the case of PSSVRPFDPLLC, the protein stability index is reported as 0.724 ± 0.063.
PSTRPQYLFLPP showed a protein stability index of 0.635 ± 0.016.
PSVPLLPPAPLS showed a protein stability index of 0.784 ± 0.075.
For PSVRRLPARRRT, the protein stability index was 0.626 ± 0.066.
PSVSPLFSSPPP gave a protein stability index of 0.719 ± 0.012.
For PSWPRLSFRPST, the protein stability index was 0.689 ± 0.022.
Sequence PSYRVVVFSLPD has a protein stability index of 0.758 ± 0.063.
For PTCPAPLPPSSP, the protein stability index was 0.699 ± 0.061.
With PTETRRIGHHEG the protein stability index was 0.661 ± 0.043.
For PTGPPPPSLGPP, the protein stability index was 0.694 ± 0.021.
PTLHVGPGTPHA gave a protein stability index of 0.705 ± 0.058.
PTLPSRYPPPMF gave a protein stability index of 0.751 ± 0.01.
PTLPTLFPSSSL was tested, and the protein stability index was 0.7448 ± 0.0045.
Work on PTLSSRPPPYPR yielded a protein stability index of 0.642 ± 0.048.
Work on PTNPPLSQPPPQ yielded a protein stability index of 0.702 ± 0.039.
In the case of PTPGGLIIVLGS, the protein stability index is reported as 0.6322 ± 0.0041.
PTPHLHPTSLPG was tested, and the protein stability index was 0.724 ± 0.1.
With PTPLCPPLAVRL the protein stability index was 0.691 ± 0.032.
Work on PTPLPSPCPAPP yielded a protein stability index of 0.703 ± 0.025.
In the case of PTRRVHRTPLFP, the protein stability index is reported as 0.778 ± 0.13.
With PTSFPAPNLPPD the protein stability index was 0.669 ± 0.0045.
PTSVRPPRRRPR gave a protein stability index of 0.745 ± 0.089.
Work on PTTQVGRRTPLA yielded a protein stability index of 0.647 ± 0.029.
For PTVGGGLDGVGR, the protein stability index was 0.669 ± 0.063.
For PTWGRSDESKAM, the protein stability index was 0.744 ± 0.0099.
In the case of PVASGYTMWSCV, the protein stability index is reported as 0.693 ± 0.015.
PVEAPVGLVCAK showed a protein stability index of 0.568 ± 0.011.
PVFPLTLPAFSS gave a protein stability index of 0.815 ± 0.018.
Sequence PVGWRGGYVGGR has a protein stability index of 0.666 ± 0.092.
For PVHFLPTPRAPL, the protein stability index was 0.686 ± 0.039.
Work on PVLGRFGSTFVV yielded a protein stability index of 0.674 ± 0.059.
With PVLGYLTRGLWL the protein stability index was 0.721 ± 0.015.
PVLMTHPYFASS was tested, and the protein stability index was 0.725 ± 0.0083.
In the case of PVLPPLLPLPCL, the protein stability index is reported as 0.644 ± 0.044.
PVLRPPPPLSPP showed a protein stability index of 0.734 ± 0.021.
Sequence PVNQRPDGGNQD has a protein stability index of 0.764 ± 0.016.
PVPERTSAEPPG showed a protein stability index of 0.618 ± 0.038.
Sequence PVPLSALPPLPP has a protein stability index of 0.746 ± 0.034.
PVPMVPTYPPSP showed a protein stability index of 0.736 ± 0.044.
PVPPFDGLVPAL gave a protein stability index of 0.728 ± 0.089.
PVPPPPPPPPPL gave a protein stability index of 0.667 ± 0.0059.
With PVRCSDLDLTFL the protein stability index was 0.774 ± 0.054.
PVRDGFSLCFVL showed a protein stability index of 0.761 ± 0.14.
With PVRIQTFLFCVP the protein stability index was 0.595 ± 0.012.
With PVRRAHPPPPRP the protein stability index was 0.674 ± 0.014.
Work on PVRVRGRGGCGG yielded a protein stability index of 0.684 ± 0.11.
PVSCLGNQACYV showed a protein stability index of 0.628 ± 0.073.
With PVSLPPSLRRPS the protein stability index was 0.736 ± 0.034.
In the case of PVTRRDVDLPPP, the protein stability index is reported as 0.706 ± 0.039.
Sequence PVTTYPPQRHIA has a protein stability index of 0.593 ± 0.03.
PVVTGGFHIVGF was tested, and the protein stability index was 0.793 ± 0.078.
With PWPGSWALFCFI the protein stability index was 0.719 ± 0.15.
In the case of PWPPRPPPPPSL, the protein stability index is reported as 0.694 ± 0.048.
